Results published in a protein production outcome set (Wang et al. 2014).

Assay: label from the status in PepcDB records

Sequence	protein production
DKLDLSPIDYYGSGSYWKTEAQATAYIDGIHKHLRDAAWQHTITFGELRGGRFITGASSDGMGVSNGDIILQNFDETHTGVSKFGDLFGRITNLNLFIARVTDATYLSDEMKNFYLGEVYGLRAFYYFDLYRIYGGVPLRLTADVVEGVIDPNKLYMARSTPKEVMTQIKSDLNKSMEYFGNMNDFDPYKRGKKVYWSKAATECLMGEVYLWTSKVTTGDDVANPADLTIAKTHLESVLNNYNLKMLDDFSQVFNAKNKANDEIIFAIRFLEGEATNSNGTFTYNVGTGSTKNRYQANGEVFGDALDIQNTGNQTYEYNKAVYQNFDDADTRKEATFIASYNKDGKTGELSLYGTHVRKNIGYVNAQGARVYCGDYIFYRLPWVYLTLAEIANMEGDNAAVAKYINLVRKRAYGNAWDETLYAYPETADFTTNELAILHEKDKEFIQEGQRWWDLRRMTLTKGGTPLVFCKEGSLLGDAPILNKSTEAHKLLWPIEKTMLNKDPALEQTPGYK	not failed
MMTDKLNLNVLDAAFYSLEQTVVQISDRNWFDMQPSIVQDTLIAGAIQKFEFVYELSLKMMKRQLQQDAINTDDIGAYGFKDILREALRFGLIGDMSKWVAYRDMRNITSHTYDQEKAMAVYAQIDDFLIESSFLLEQLRQRNQYD	not failed
MRKFTILLLLLWLPSFVSSLTEFDSVMDLRKQLIVLTGWLGFAYMGAAIVLSARFKWTERLVKGLDKAYGLHKKLGISAFIALLLHWLVIKAAHWAVQLGWLVRPTHAGKERVITGVDWISLAEKVGDISFKVFILFTIISLVERISYKKFKGIHKIGGALMLAGVFHTLFLIKWDLSLIPMNIAIILISAISVWCAILSLTGSIGKKNKIGGQVVLVDKFKDDSEFTVVARLQIKLESKLRYKEGQFAYINFHDGEAPHPFSILNYNEKTRLVEFGIKDLGDYTHQLVNQIAVGKKATVEGGYGYFQVPSDMNQVWVGAGIGIVPLLSRLYWLQKSTDKTTKRIEKIHLFYCVNNEKEAFFSTEIKAILRKMDFIELHLIESDKGYRLTSEYILNKIDNESFSVSFCGPEGFGMSLKQGLMANGLPEASFHKEIFKMR	failed
MMKDMTTGNPTKLIFLFAMPMLIGNLFQQFYTMIDAVIVGKFVSVDALAAVGATNSVNFFMISLIIGLMSGISVVVAQYFGFKDYDRLKDVIATATYAVVFSAIILTVAGVLLAKPLLILLRTPANILDDSTIFLTTLFIGILPMSLYNGMAAILRALGNSITPLIFLILSSLMNIALDFLFVVYMDMGVRGAAIATVLSQTAAAIAVIYYAYRHVPFMRIERAKFKLSTPLLKEMVRIGLPSGLQGSFISIGNMALQSLINGFGSSVVAAYTAASRIDSLTYQPGIAFGAASSMFAGQNIGAGKIDRVREGFWSGIKVVTAISIGITILVQLFARQFLLLFVDSSETEVINIGVSYLLIVSLFYVVVGILFVVRETLRGTGDAMVPLAMGIFELVSRLVIGFVLSLYIGYVGLWWATPVAWITATILGVWRYKSGAWQKKAVIRRK	not failed
MLKYQQIATEIETYIEEHQLQQGDKLPVLETLMAQFEVSKSTITKSLELLEQKGAIFQVRGSGIFVRKHKRKGYISLLSNQGFKKDLEDFNVTSKVIELDVRKPTPEAAENLNIGMDEDIYYVKRVRYINGQTLCYEESYYTKSIVTYLNNEIVSHSIFHYIREGLGLKIGFSDLFLHVGQLNEEEAEYLGLEAGLPKLYIESIFHLTNGQPFDYSKISYNYEQSQFVVQANSFLL	not failed
MEITKRIEELREEMVESLKKFISINSVNPAFGGPGEKEKADWLEGLLRDFGFEVDRCDVRDDRGIWRSNIVAKIPGKNREKTLWIVTHIDTVPPGDLSLWETDPFVPVVKDGKVYGRGAEDNGGSMIASIYAGKALIDLGITPEYNFGLALVADEEAGSEYGIQYLIEKGLFSPEDMFLVPDAGNEKGDFIEIAEKSILWFKVMVNGKQGHASRPQTTENALRKGAHLITEIDEALHRKYSDRDELFDEPLSTFEPTRAEKTVDNVNTVPGRFVFYFDCRVLPRYNLDEVLSIVKSILDGRGAELEVVVKQPAPEPTPPDSELVVKLSNVLRSLRGLEAKVGGIGGGTCAAFFRKKGWPAVVWSTIDETAHQPNEYRRISHMVEDAKVFALLGTER	not failed
MWPSCMARFPSDGQPGYRFVPSPGSGAGEEEMRPLVSVVCACFNISKYLDEAIASIYAQGYPNLELIVVDDGSTDDTYERLAMLRERHGFQLYRQANRGVSDALNHGLRHARGEFVMTPDLDDILLPGALDTRVDYLLAHPEVGCVGGFNICIDSAGNEVARDGFSEGCVERWGFDAALAETLVVMPLTALYRMEAMKRADFFDPSIRVQDFQITLRIAAQGYEIHRLPAYMGRYRRHGSGLSGRYKLNYEADMQAIEPYRAHPNYRRARQLILNKALKKAVVQDGRYAWQLFRSVPLRAWDRVTLKRFWRFLRYLPVLGLKGGTGVEGR	failed
MRKCLLSVAMIVKDEEHNIRRALESIKDVVDEIVVVDTGSTDRTPEIVREYTDKLYFHEWKNDFSEARNFSLKFPTCEWVLILDADEEASEEFRQNIRSFLESLPEDVNTVYLPTVSYLDWDFKRTEIASTPRIFRNGTVYYKNIVHNQAVYKPKVVHAPFVIYHYGYIWTRKLKKNKYERTATLIREQLKTVKNPIEKIYYLIQLYKTEKTGGRKHEENRIAWETLQEIMKVGKIPPIGLEFLYIFGMELILNGFLEKGEELIDTAIRVFPENPDPYFAKLAIYERRKDWENLYQWGKKFLDVLNKALSQAEKYEFTITTIKEIGTAHLLMCHACIKLKKWNEAYEHLLKAIENNIDESKFTLTLQIVSEIDESENFQKVLKLVEKIAEHSENLFFDEIVEKIAEFEIEASEELLNKLPVSRKISKFILKRLVEKKDFLFEYLTGGDINSFVEKTGIPGLLFIFDLLKNRETEGRLIRILSKIEGDEKPNGIVQALIGDLYLKLGNFSEAISRYRKALELAPEIGNFIKPVIEDLKTRLDPDIEGVYEELYRYFSGYREFPFNILEFTKEDAEKLYLISDHPLAIYTSAVAVFPKSKEKARALLERIKDVSKLSFYYYRLAKTWEEENPSKAFELHIKAVEENENLGDIALGRYKYDGLYPNQTFPFMKKEDEIVWAGNITEKFSGLGVIHPVRAWKRKENLYYALPHPTDEALKLYKEREKEILKEPPFKVKEEHMIGVLLESDIRDLRIKGEASGLESILKDLEIELKEDSKNLLVVSGVEETLDLSKIAEDAERVLLFFFVPDLRDRNNSVWYYPAFRVLRTTHQMKKTLEDLRFSVVKVKALDKNLRFIEALRRL	failed
MSGSLARAAARPNAPTLVDEATVDDFIAHSGKIVVLFFRGDAVRFPEAADLAVVLPELINAFPGRLVAAEVAAEAERGLMARFGVAVCPSLAVVQPERTLGVIAKIQDWSSYLAQIGAMLAEVDQPGEAELQS	not failed
MKINKIDTRHGTANQSTFSHGNCLPYTGFPWGMNYFSPSTGAARGAWWFHPEDRTFEGYRITHQPSPWMGDFSHLTMTPVAGPLPETSLWHTVSSYRPEESTFNPTQLKITQLRYQITSQLIPSMYGGILSMNYQNLSLKDNGLMLHLPGSYELQQLDDYSLELSIINFAGCEDENFTFYLKFTADQPFVLSGNLSDEDSSVRLDFKAAKQVQIHFATSFISKEQAALNLEREQDNSAETYLENAESAWNNLFSRIEIEHHNQQEVSTFYHNLYRSFLFPQTFYEFDQEHQKIHYDTSSKTVKKGPLYTNNGFWDTFRTVYPLYSLIAVDEYGDMLEGFLNSYRATGFLPKWLSPDERGLMPGTLIDAVIADAASKNIRPDLMPEFLEAMKKGATSQSENSNYGRRGTKDYLKLGYVPLTHHESVNHTLDYAFSDYCISQVAKQTGDKEISDFYAHQAKDYQNIFDSETGFMRAKDADGNFRADFLDIRWGRDYAEGSAWQTSWSVLHDFAGLIKLHGSRENFENKLIELCNQRPNFNVEGYGFEIHEMSEMAAIEFGQVAISNQPSFHYPYLFSYIGKPWMATPLIKNLLTETFNDSPKGYPGDEDNGTMAAWYIFSSLGFYPVTAASNQYVLGIPLWDKARINLSSGQQLTILAEPNAPQQVFVNQITFTDKKVNDTFIKHEELIKGGTLKFDLGIVPNPLKYTNEQLPYSLTEN	failed
MIQTKDIIELTDTYGANNYHPLPIVISKAEGVWVEDPEGNRYMDLLSAYSAVNQGHRHPKIINALIDQANRVTLTSRAFHSDQLGPWYEKVAKLTNKEMVLPMNTGAEAVETAIKTARRWAYDVKKVEANRAEIIVCEDNFHGRTMGAVSMSSNEEYKRGFGPMLPGIIVIPYGDLEALKAAITPNTAAFILEPIQGEAGINIPPAGFLKEALEVCKKENVLFVADEIQTGLGRTGKVFACDWDNVTPDMYILGKALGGGVFPISCAAANRDILGVFEPGSHGSTFGGNPLACAVSIAALEVLEEEKLTERSLQLGEKLVGQLKEIDNPMITEVRGKGLFIGIELNEPARPYCEQLKAAGLLCKETHENVIRIAPPLVISEEDLEWAFQKIKAVLS	not failed
